# Test results: paper PMC6529018
# Molecular target: Recombinant His-BifA (full length) (Streptococcus equi subsp. zooepidemicus ATCC35246)
# Assay: SPR; Biacore X100; His-BifA and its variants immobilised on NTA sensorchips, moesin, moesin T558A or moesin T558D injected
row,Substance,Kd [nM]
1,"Recombinant moesin T558A, non-tagged (from UniProt P26038 1-577) (natural protein)",737
2,"Recombinant moesin T558D, non-tagged (from UniProt P26038 1-577) (natural protein)",10.8
